Measured values from the RNAGym collection of RNA variant scans (doi:10.7554/elife.90254).

B1: LINE1-full (parent)
chain: UACGUAGGUGGUUUUCCCCUGAUAGUGCUAAGGGGGCCUGGAAGUUUGGACUGGGCAGAGCUCAACACAGCGUGGCAAAGUGGCUGUGGCUAGACUGCCUCUCUGGAUUCCUCGUCACUCAGCAGGGCAUCUCUGAGAGAAAUGCC

Variants of: B1
Assay: self-cleavage, relative activity (ratio to wild type); higher = more cleavage; in vitro, sequencing; the parent is a self-cleaving ribozyme

| Variant | self-cleavage |
| --- | --- |
| A24G G86A | 0.12 |
| A124G A142U | 0.94 |
| G7C | 1.4 |
| U39A U62A | 0.02 |
| U45G U109C | 0.66 |
| U62C C101A | 0.04 |
| U5C A65U | 0.26 |
| A138G U143G | 1.34 |
| A22U A65U | 0.18 |
| U5C U130A | 0.77 |
| U45A U130C | 1.86 |
| G40A U73A | 0.81 |
| U47C A78C | 1.96 |
| G53A U109C | 0.27 |
| U9A U14A | 1.03 |
| U9A A77U | 0.85 |
| A64G U96A | 0.07 |
| A121G U134C | 1.88 |
| U12C U96C | 0.19 |
| A22G C128U | 1.26 |
| U115A G137A | 1.81 |

| Variant | self-cleavage |
| --- | --- |
| U26A G114A | 0.67 |
| U46G A69U | 0.1 |
| U112C G139A | 1.36 |
| U1A G34C | 1.08 |
| U47C U132A | 0.93 |
| G58U C71U | 0.04 |
| U12G A57G | 1.42 |
| U46C A59G | 0.16 |
| G33C U115C | 2.26 |
| U91G U108C | 0 |
| A64U U119A | 0.34 |
| A22U U130C | 1.35 |
| A30G G44C | 0.8 |
| C113U A129G | 1.34 |
| A107G G137U | 2.3 |
| A57G U134C | 0.93 |
| U130A A140G | 1.27 |
| A94U U143C | 0.24 |
| A67U U112A | 0.13 |
| A67G A107G | 0.25 |
| G10A A77G | 1.31 |

| Variant | self-cleavage |
| --- | --- |
| A59U A124G | 0.75 |
| U73C | 1.72 |
| U1A A121G | 1.73 |
| U9A A67G | 0.58 |
| U85G U108C | 0.22 |
| U130C U132C | 1.29 |
| G10A A67U | 0.07 |
| U85A A136U | 0.19 |
| A2G U15G | 0.99 |
| C116A A124G | 1.25 |
| U14A U45G | 0.77 |
| U85G U104C | 0 |
| U20A A30G | 0.9 |
| U1C A67C | 0.09 |
| G58U A140G | 0.05 |
| A78U U85A | 0.11 |
| A50G U96G | 0.26 |
| G34A U87G | 0.2 |
| A79U G89C | 0.02 |
| A42G U132A | 1.8 |
| A94G A140U | 0.33 |

| Variant | self-cleavage |
| --- | --- |
| U62A A67G | 0.07 |
| A77C A94G | 0 |
| U20G A141G | 0.87 |
| C76U U132C | 1.8 |
| A79U A141G | 1.71 |
| U29C G127C | 1.58 |
| G34A G54A | 0.78 |
| C63U A124G | 0.09 |
| U14A A140U | 1.43 |
| A64U U81G | 0.4 |
| A6G U143A | 0.89 |
| U13C A129C | 1.33 |
| C16A A129U | 1.15 |
| G55U U134C | 0.29 |
| U47C U109A | 1.6 |
| A69G U96C | 0.16 |
| A65G A136U | 0.07 |
| U46C A94G | 0.4 |
| C63U U102A | 0.33 |
| G54A C84U | 0.08 |
